This note sets out measurements from patent publication US20240254229A1 (Molecular Partners, published 2024).

Assay [1] deals with T1, hCD123 (recombinant, construct not stated) (human, UniProt P26951 19-305, limits assumed).
T1 construct: also called CD123 (Ligand 2)
T1 sequence (looked up): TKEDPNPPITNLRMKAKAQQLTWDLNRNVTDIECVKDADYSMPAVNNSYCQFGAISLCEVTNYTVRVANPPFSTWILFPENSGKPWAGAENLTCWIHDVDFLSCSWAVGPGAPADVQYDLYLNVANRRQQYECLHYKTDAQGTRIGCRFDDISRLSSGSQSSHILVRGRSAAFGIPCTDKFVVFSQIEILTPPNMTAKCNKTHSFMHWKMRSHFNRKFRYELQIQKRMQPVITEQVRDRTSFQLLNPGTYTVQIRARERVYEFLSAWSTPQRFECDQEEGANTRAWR
Nature of the assay: switchSENSE, CD33 and CD123 on one chip; monophasic; CD123-only control, monophasic.

The target of assay [2] is T2, hCD33 (recombinant, construct not stated) (human, UniProt P20138 18-259, limits assumed).
T2 construct: also called CD33 (Ligand 1)
As to the kind of experiment: switchSENSE, hCD33 and hCD123 co-immobilised 2:1; panel headed CD33. The protocol:
(§1) The designed ankyrin repeat proteins: DARPin® protein #20, DARPin® protein #21, DARPin® protein #22, DARPin® protein #27, DARPin® protein #40 and DARPin® protein #41 were tested in a concentration of 0.16 and 64 nM (in a buffer PE140 containing 10 mM Na2HPO4/NaH2PO4, 140 mM NaCl, 0.05% Tween20, 50 μM EDTA, 50 μM EGTA) for binding against two ligands hCD33 and hCD123, which both were immobilized simultaneously to DNA nanolevers, on the surface, at a pre-defined ratio (2:1, CD33:CD123) and 10% density (100:50) on an ADP-48-1-0 chip, where 100% density 1000 receptors/μm2 (preincubated R1-B48-CD123 and G1-A48-CD33 (100 nM) diluted in cNL-48 (dark)). Briefly the following steps were performed: [0724] Conjugation. Amine coupling of the two ligands (CD33 and CD123) to the DNA nanolever (A48, B48, respectively) and purification of the conjugates using the proFIRE® solution (Dynamic Biosensors GmbH) at 25° C. [0725] Evaluation of all the combined affinity and avidity of all different proteins to both ligands attached on the surface of an ADP chip using a DRX+ instrument (dynamic BIOSENSORS). [0726] Statistical analysis (repeatability from 2 to 5 times) including regeneration of the chip surface every concentration analyzed and long dissociation times and data were fitted using a bi-exponential global fit.

Assay [3] deals with T1, hCD123 (recombinant, construct not …). Nature of the assay: switchSENSE, hCD33 and hCD123 co-immobilised 2:1; panel headed CD123, column KD1; KD2 printed N.A. Here is the method: as §1
For assay [4] the target is unchanged. Nature of the assay: switchSENSE; KD,1 (affinity); KD,1 (affinity), CD123. The protocol:
as §1

Assay [5] deals with T3, hCD33 and hCD123 immobilized simultaneously on one switchSENSE chip (ratio 2:1, CD33:CD123) (human, UniProt P20138 18-259; P26951 19-305, limits assumed).
T3 construct: Not a complex: two separate ligands on one surface; used for avidity values and for off-rates; also called both ligands; both targets attached to the surface of the chip
Nature of the assay: switchSENSE, CD33 and CD123 on one chip; fast phase (affinity); fast phase (affinity). The protocol:
as §1

In assay [6] the target is T3, hCD33 and hCD123 immobilized …. Nature of the assay: switchSENSE, hCD33 and hCD123 co-immobilised 2:1; panel headed CD123, column KD2 (avidity, simultaneous binding of CD33 and CD123 per paragraph 694). The protocol:
as §1

Assay [7] shares this target. As to the kind of experiment: switchSENSE, CD33 and CD123 on one chip; slow phase (avidity). The protocol:
as §1

In assay [8] the target is T1, hCD123 (recombinant, construct not …). As to the kind of experiment: switchSENSE, hCD33 and hCD123 co-immobilised 2:1; panel headed CD123, column KD1 (affinity). Here is the method:
as §1

For assay [9], the target named is T2, hCD33 (recombinant, construct not …). Nature of the assay: switchSENSE; KD,1 (affinity); KD,1 (affinity), CD33. The protocol: as §1
In assay [10] the target is T1, hCD123 (recombinant, construct not …). As to the kind of experiment: switchSENSE, CD33 and CD123 on one chip. Here is the method:
as §1

Assay [11] has as its target T2, hCD33 (recombinant, construct not …). As to the kind of experiment: switchSENSE, CD33 and CD123 on one chip. Here is the method:
as §1

For assay [12] the target is unchanged. As to the kind of experiment: switchSENSE, CD33 and CD123 on one chip; kon to CD33. The protocol: as §1
Assay [13] has as its target T3, hCD33 and hCD123 immobilized …. Nature of the assay: switchSENSE, CD33 and CD123 on one chip; slow phase (avidity); slow phase (avidity).
Assay [14] has the same target. Nature of the assay: switchSENSE, hCD33 and hCD123 co-immobilised 2:1; panel headed CD33, column KD2 (avidity, simultaneous binding of CD33 and CD123 per paragraph 694). The protocol:
as §1

Assay [15] has the same target. As to the kind of experiment: switchSENSE, CD33 and CD123 on one chip; fast phase (affinity). The protocol:
as §1

The target of assay [16] is T2, hCD33 (recombinant, construct not …). Nature of the assay: switchSENSE, hCD33 and hCD123 co-immobilised 2:1; panel headed CD33, column KD1 (affinity). Here is the method:
as §1

Assay [17] has as its target T1, hCD123 (recombinant, construct not …). Nature of the assay: switchSENSE, CD33 and CD123 on one chip; kon to CD123. The protocol:
as §1

Assay [18] addresses T2, hCD33 (recombinant, construct not …). Nature of the assay: switchSENSE, hCD33 and hCD123 co-immobilised 2:1; panel headed CD33, column KD1; KD2 printed N.A. Here is the method: as §1
The target in assay [19] is T1, hCD123 (recombinant, construct not …). As to the kind of experiment: switchSENSE, hCD33 and hCD123 co-immobilised 2:1; panel headed CD123. The protocol: as §1
Assay [20] addresses T2, hCD33 (recombinant, construct not …). Nature of the assay: switchSENSE, CD33 and CD123 on one chip; monophasic; CD33-only control, monophasic.
Assay [21] addresses T4, biotinylated extracellular domain of human CD123 (SEQ ID NO: 88), Fc and Avi tagged (human, UniProt P26951 19-303, biotinylated with BirA-GST (Avi tag)).
T4 construct: also called hCD123
T4 sequence: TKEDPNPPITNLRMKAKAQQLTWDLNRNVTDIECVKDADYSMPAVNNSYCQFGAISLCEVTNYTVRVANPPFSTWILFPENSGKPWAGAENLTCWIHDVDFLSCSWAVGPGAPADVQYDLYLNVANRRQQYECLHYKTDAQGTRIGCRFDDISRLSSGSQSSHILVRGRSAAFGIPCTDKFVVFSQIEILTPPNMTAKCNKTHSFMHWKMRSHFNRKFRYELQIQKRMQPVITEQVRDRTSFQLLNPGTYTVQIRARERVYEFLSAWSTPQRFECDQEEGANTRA
As to the kind of experiment: ribosome display selection, crude extract HTRF. In general terms: In TR-FRET formats the signal depends on donor and acceptor labels being close together.

Values joined by “and” are separate entries in the source; they are usually repeats but may differ in a detail not shown here. Identical values can stand only once.

T3 sequence (P20138 18-259 limits assumed, one chain of several): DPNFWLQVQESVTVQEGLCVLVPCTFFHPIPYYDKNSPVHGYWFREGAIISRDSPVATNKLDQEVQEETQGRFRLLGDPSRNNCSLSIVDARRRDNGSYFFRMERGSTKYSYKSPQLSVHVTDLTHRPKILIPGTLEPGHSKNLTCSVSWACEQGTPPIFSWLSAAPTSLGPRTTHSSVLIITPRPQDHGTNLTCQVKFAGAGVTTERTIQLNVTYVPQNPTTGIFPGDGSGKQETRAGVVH
T2 sequence (P20138 18-259 limits assumed): as the sequence (P20138 18-259 limits assumed, one chain of several) above

B1: DARPin® protein #41 (designed binder)
chain: DLGKKLLEAALEGQLDEVRELLKAGADVNAKDQEGYTPLHLAAALGHLEIVEVLLKAGADVNAKDSIGRTPLHLAAYKGHLEIVEVLLKAGADVNAQDLLGETPADLAAEQGHQDIAEVLQKAAGSPTPTPTTPTPTPTTPTPTPTGSDLGKKLLEAARAGQDDEVRELLKAGADVNAKDKDGYTPLHLAAREGHLEIVEVLLKAGADVNAKDKDGYTPLHLAAREGHLEIVEVLLKAGADVNAQDKSGKTPADLAADAGHEDIAEVLQKAAGSPTPTPTTPTPTPTTPTPTPTGSDLGQKLLEAAWAGQDDEVRELLKAGADVNAKNSRGWTPLHTAAQTGHLEIFEVLLKAGADVNAKDDKGVTPLHLAAALGHLEIVEVLLKAGADVNAQDSWGTTPADLAAKYGHEDIAEVLQKAA
notes: also called αCD123-Ni2C-αCD3
Consider B1, for which, in [1], the koff (usually the rate constant with which the complex falls apart) is 0.06 s⁻¹. For the same molecule, in assay [2], the binding result is recorded as “no binding”. In addition, the Kd in assay [3] worked out at 4.2 nM.

B2: DARPin® protein #20 (designed binder)
chain: DLGKKLLEAARAGQDDEVRILMANGADVNALDWLGHTPLHLAAYEGHLEIVEVLLKNGADVNAIDDNNGFTPLHLAAIDGHLEIVEVLLKNGADVNAQDKFGKTAFDISIDNGNEDLAEILQKAAGSPTPTPTTPTPTPTTPTPTPTGSDLGDKLLLAATSGQDDEVRILLAAGADVNAKDYDGDTPLHLAADEGHLEIVEVLLKAGADVNAKDYSGSTPLHAAAAYGHLEIVEVLLKAGADVNAQDVFGYTPADLAAYVGHEDIAEVLQKAAGSPTPTPTTPTPTPTTPTPTPTGSDLGQKLLEAAWAGQDDEVRILLAAGADVNAKNSRGWTPLHTAAQTGHLEIFEVLLKAGADVNAKNDKRVTPLHLAAALGHLEIVEVLLKAGADVNARDSWGTTPADLAAKYGHGDIAEVLQKLA
notes: CD123-CD33-CD3; also called αCD123-αCD33-αCD3_1
As to B2, the Kd was approximately 4.9 nM in assay [4]; 0.29 nM in assay [6]; 4.9 nM in [8]; approximately 17.6 nM in assay [9]; 0.7 nM in [14]; 18 nM in [16]. Moreover, the koff in assay [5] was 0.03 s⁻¹; in assay [7], ~0.001 s⁻¹ and 0.001 s⁻¹; in assay [13], 0.0015 s⁻¹; in assay [15] it was ~0.01 s⁻¹ and 0.02 s⁻¹. For the same molecule, the kon (in general, a measure of how fast the partners come together) was approximately 1e+07 M⁻¹ s⁻¹ in assay [10], approximately 1e+06 M⁻¹ s⁻¹ in [11], 1.3e+06 M⁻¹ s⁻¹ in assay [12] and 7e+06 M⁻¹ s⁻¹ in assay [17].

B3: DARPin® protein #40 (designed binder)
chain: DLGKKLLEAARAGQDDEVRELLKAGADVNAKDKDGYTPLHLAAREGHLEIVEVLLKAGADVNAKDKDGYTPLHLAAREGHLEIVEVLLKAGADVNAQDKSGKTPADLAADAGHEDIAEVLQKAAGSPTPTPTTPTPTPTTPTPTPTGSDLGVKLLLAASRGQLDEVRILLKAGADVNAKDIDEGYTPLHIAAYYGHLEIVEVLLKAGADVNAKDRYGKTPLHLAAISGHLEIVEVLLKAGADVNAQDDKGDTPADLAADYGHQDIAEVLQKAAGSPTPTPTTPTPTPTTPTPTPTGSDLGQKLLEAAWAGQDDEVRELLKAGADVNAKNSRGWTPLHTAAQTGHLEIFEVLLKAGADVNAKDDKGVTPLHLAAALGHLEIVEVLLKAGADVNAQDSWGTTPADLAAKYGHEDIAEVLQKAA
notes: also called Ni2C-αCD33-αCD3
As to B3, the Kd in assay [18] is 7.1 nM. In addition, the binding result in assay [19] is on record as “no binding”. Also, the koff in assay [20] stood at 0.01 s⁻¹.

B4: DARPin® protein #35 (designed binder)
chain: DLGKKLLEAALEGQDDEVRELLKAGADVNAKDQEGYTPLHLAAALGHLEIVEVLLKAGADVNAKDSIGRTPLHLAAYKGHLEIVEVLLKAGADVNAQDLLGETPADLAAEQGHEDIAEVLQKAA
notes: CD123-specific domain; screened as crude extract
Turning to B4, in assay [21], the binding result is given as “binds”.
